Consider one protein from ChEMBL document CHEMBL1147688, “Development of a dual fluorogenic and chromogenic dipeptidyl peptidase IV substrate” (Bioorg Med Chem Lett, 2006).

Substrate in the data set: NCC(=O)N1CCC[C@H]1C(=O)NCC(=O)N1CCC[C@H]1C(=O)Nc1cc2oc3cc(=[N+](CCCS(=O)(=O)O)CCCS(=O)(=O)O)ccc-3nc2c2ccccc12
The data set is described as follows: Affinity for DPP4. Particulars: Homo sapiens.

For orientation: Km means the substrate concentration at which the rate is half of its maximum.

B1: Dipeptidyl peptidase 4 (Homo sapiens), P27487 (protein)
chain: MKTPWKVLLGLLGAAALVTIITVPVVLLNKGTDDATADSRKTYTLTDYLKNTYRLKLYSLRWISDHEYLYKQENNILVFNAEYGNSSVFLENSTFDEFGHSINDYSISPDGQFILLEYNYVKQWRHSYTASYDIYDLNKRQLITEERIPNNTQWVTWSPVGHKLAYVWNNDIYVKIEPNLPSYRITWTGKEDIIYNGITDWVYEEEVFSAYSALWWSPNGTFLAYAQFNDTEVPLIEYSFYSDESLQYPKTVRVPYPKAGAVNPTVKFFVVNTDSLSSVTNATSIQITAPASMLIGDHYLCDVTWATQERISLQWLRRIQNYSVMDICDYDESSGRWNCLVARQHIEMSTTGWVGRFRPSEPHFTLDGNSFYKIISNEEGYRHICYFQIDKKDCTFITKGTWEVIGIEALTSDYLYYISNEYKGMPGGRNLYKIQLSDYTKVTCLSCELNPERCQYYSVSFSKEAKYYQLRCSGPGLPLYTLHSSVNDKGLRVLEDNSALDKMLQNVQMPSKKLDFIILNETKFWYQMILPPHFDKSKKYPLLLDVYAGPCSQKADTVFRLNWATYLASTENIIVASFDGRGSGYQGDKIMHAINRRLGTFEVEDQIEAARQFSKMGFVDNKRIAIWGWSYGGYVTSMVLGSGSGVFKCGIAVAPVSRWEYYDSVYTERYMGLPTPEDNLDHYRNSTVMSRAENFKQVEYLLIHGTADDNVHFQQSAQISKALVDVGVDFQAMWYTDEDHGIASSTAHQHIYTHMSHFIKQCFSLP
Consider B1, for which the Km is 56 µM.
